In patent US20240382677A1 one finds % blocking data, which are given here for one substance.

This test concerns the target recombinant human PD-1 dimer expressed with a C-terminal mouse IgG2a Fc tag (hPD-1-mFc) (human). Description: competition ELISA, 1.5 nM hPD-1-mFc, coated hPD-L1-hFc; NBI. Background: In an ELISA, binding on a coated surface is turned into a signal by an enzyme label.

Sequence of recombinant human PD-1 dimer expressed with a C-terminal mouse IgG2a Fc tag (hPD-1-mFc) (human) (chain, as listed by the source limits assumed): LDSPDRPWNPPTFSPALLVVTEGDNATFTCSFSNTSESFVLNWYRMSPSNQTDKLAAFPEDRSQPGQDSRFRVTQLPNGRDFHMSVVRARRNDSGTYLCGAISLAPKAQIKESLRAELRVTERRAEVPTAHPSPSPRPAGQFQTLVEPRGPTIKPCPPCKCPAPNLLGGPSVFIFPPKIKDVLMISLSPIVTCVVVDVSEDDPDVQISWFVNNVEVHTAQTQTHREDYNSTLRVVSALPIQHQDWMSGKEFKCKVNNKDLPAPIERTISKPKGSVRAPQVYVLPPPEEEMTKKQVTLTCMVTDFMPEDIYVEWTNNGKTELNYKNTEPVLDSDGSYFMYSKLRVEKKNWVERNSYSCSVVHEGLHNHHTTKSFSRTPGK

On to Isotype control 2 (antibody), for which the % blocking at 200 nM antibody was -18%.
